Measurements taken from patent publication US6610289B2, “Mutated herpes simplex virus type 1 thymidine kinases and uses thereof” (The Board of Trustees of the University of Arkansas, priority 1998, dated 2003).
Where two headings read alike, the source gives them in different places.

Experiments:
HCT-116 cells [1] = experiment: MTT cell viability, sensitivity to GCV killing, HCT-116 cell lines expressing HSV-1 TKs; assay type: cell-based, human; settings: HCT-116, GCV 0-5 μM, 4 days, FIG. 3B
Procedure: (§1) Cells were plated in triplicate and exposed to 0, 0.05, 0.5 or 5 μM GCV for four days. Cell viabilities were determined using MTT dye. […] FIG. 3A: NIH3T3 cell lines, FIG. 3B: HCT-116 cell lines; parental cells (noTK, dark bands); Asp125TK (Asp-#, brick band); Glu-125TK (Glu-#, cross-hatch bands); Asn-125TK (Asn-#, gray bands); wild-type HSV-1 TK (WT-#, striped bands).
(§2) A Moloney murine leukemia virus derived plasmid for the expression of HSV-TK, termed pLENTK, has been previously constructed (24). A unique BspEI-MluI restriction fragment within the HSV-TK sequence of pLENTK contains the Gln-125 mutation site. This fragment was removed from wild-type plasmid and replaced with the analogous fragments encoding each mutant. […] Along with wild-type HSV-1 TK plasmid, each mutant-TK plasmid was transfected individually into the murine fibroblast cell line, NIH 3T3, and the human colon tumor cell line, HCT-116, using lipofectin reagent (GIBCO/BRL) (2 μg plasmid, 14 μl lipid per 1×10^6 cells). Cells were maintained in RPMI 1640 media and selected with G418 (200 μg/ml for 2 weeks) as previously described (24). At least eight individual G418 resistant cell clones were picked and grown up for further characterization. Each clone was screened initially for growth inhibition by 25 μM GCV. Those clones that were sensitive were further analyzed for HSV-TK protein expression by Western blot analysis with a polyclonal, rabbit anti-HSV-TK antibody (a gift from Dr. Margaret Black). For each clone, cell numbers were normalized to 1×10^6, and equal protein loading was confirmed for each sample by gel staining. Blotted HSV-1 TK protein bands were visualized on film using ECL chromophore reagents (Amersham). For analysis of GCV sensitivity of different clones, NIH3T3 and HCT-116 cell sets were seeded in 96 well plates in 0.1 ml media (15,000 cells/well). The next day, a dose range of GCV (0.005 to 5 mM, n=3) was added in 0.1 ml media. After 4 days, MTT ([…]) was added for 1.5 hours, followed by DMSO solubilization of the cells and absorbance reading at 540 nm (25).
(§3) cDNA for each mutant was incorporated into a Moloney murine leukemia virus plasmid (24). The plasmids for wild-type HSV-1 TK and each mutant were individually transfected into either NIH3T3 cells or the human colon tumor cell line, HCT-116. Following drug selection in G418, individual cell clones were evaluated for sensitivity to GCV and relative levels of HSV-1 TK expression. Using an HSV-1 TK antibody and extracts normalized by protein and cell number, the relative expression levels of HSV-1 TK in each cell clone were determined.

HCT-116 cells [2] = experiment: Clonal dilution assay for GCV sensitivity; assay type: cell-based, human; settings: for Decrease in cell colony numbers: 24 hours, FIG. 4
Procedure: Parental HCT-116 (large square), wild-type HSV-1 TK cells (triangle), Asn-125TK cells (small square) and Glu-125TK cells (diamond) were treated with 0, 0.1, 1 or 10 μM GCV in triplicate for 24 hours. After this time, each well of cells was sequentially diluted from 1:10 to 1:10,000 in 1 ml of fresh media on a separate 24 well plate. After 7 days, surviving cell colonies were fixed in 100% methanol, stained with 0.1% methylene blue and counted.
For determination of GCV sensitivity, parental HCT-116 and each HSV-1 TK expressing cells were seeded in 24 well plates (2×10^5/well) in 1 ml of media. The next day, 0, 0.1, 1 or 10 μM GCV was added to each cell line in triplicate. After 24 hours, for each well the media was removed, cells were rinsed twice in fresh media, trypsinized, then media was added to 1 ml per well. Each well of cells was then sequentially diluted from 1:10 to 1:10,000 in 1 ml of fresh media on a separate 24 well plate. After 7 days, surviving cell colonies were fixed in 100% methanol, stained with 0.1% methylene blue and counted. For bystander effect assays, each of the three HSV-1 TK expressing cell lines were plated with parental HCT-116 cells (total 2×10^5/well) in the following proportions: (parental: HSV-1TK cells) 100%:0; 95%:5%; 90%:10%; 75%:25%; 50%:50% and 0:100%. After two days, 25 μM GCV was added in 1 ml fresh media. After 24 hrs, the media was removed and cells from each well were diluted from 1:10 to 1:10,000 as described above. After 7 days, surviving cell colonies were fixed and stained for counting.
Cells previously plated in 24 well plates were treated with GCV (0-10 μM) in triplicate for 24 hours. Following drug removal, cells were diluted and replated in fresh media from dilutions of 1:10 to 1:10,000. Surviving cell colonies were counted 6-7 days later.

NIH3T3 cells = experiment: MTT cell viability, sensitivity to GCV killing, NIH3T3 cell lines expressing HSV-1 TKs; assay type: cell-based, murine; settings: NIH3T3, GCV 0-5 μM, 4 days, FIG. 3A
Procedure: as §1
as §2, with “For each clone, cell numbers were normalized to 1×10^6, and equal protein loading was confirmed for each sample by gel staining. Blotted HSV-1 TK protein bands were visualized on film using ECL chromophore reagents (Amersham). For analysis of GCV sensitivity of different clones, NIH3T3 and HCT-116 cell sets were seeded in 96 well plates in 0.1 ml media (15,000 cells/well). The next day, a dose range of GCV (0.005 to 5 mM, n=3) was added in 0.1 ml media.” left out
as §3, with “The plasmids for wild-type HSV-1 TK and each mutant were individually transfected into either NIH3T3 cells or the human colon tumor cell line, HCT-116.” left out

HSV-1 TK = assay type: biochemical, herpes simplex virus type 1; settings: for Decrease in kcat for GCV compared to wild-type enzyme: substrate GCV
Procedure: For determination of Km values of thymidine and GCV for the four enzymes, the filter binding assay was utilized. The basic reaction components were as above, and the following enzyme concentrations, substrate ranges and times were used under linear initial velocity conditions: for [^3H]thymidine: parent Gln-125TK: 0.1 μg TK, 0.1-4 μM, 10 min; Asn-125TK: 0.2 μg TK, 0.25-10 μM, 15 min; Asp-125TK: 4 μg TK, 0.1-2.5 μM, 30 min; Glu-125TK 0.5 μg TK, 0.5-2.5 μM, 15 min. For [^3H]GCV: parent Gln-125TK: 2 μg TK, 5-100 μM, 15 min; Asn-125TK: 0.6 μg TK, 0.5-15 μM, 15 min; Asp-125TK: Not determined; Glu-125TK 4 μg TK, 50-1000 μM, 25 min. Each reaction was done in triplicate. For calculation of kinetic constants, non-linear regression Michaelis-Menten analyses were done using PSI-PLOT version 5.0 (Poly Software International).
Unlike the substrate screening assays presented in Table 1, linear velocity conditions for each enzyme and substrate were established prior to Km determinations.

[3] = substrate ganciclovir, read-out: Km ganciclovir
[4] = substrate thymidine, read-out: Km thymidine

Row | Substance | Dose dependent cell killing by GCV (cell viability, MTT) (HCT-116 cells [1]; listed as Gln-125) | Dose dependent cell killing by GCV (cell viability, MTT) (HCT-116 cells [1]; listed as wild-type) | Decrease in cell colony numbers (HCT-116 cells [2]; 0.1 μM GCV) | Decrease in cell colony numbers (HCT-116 cells [2]; 10 μM GCV) | Dose dependent cell killing by GCV (cell viability, MTT) (NIH3T3 cells) | kcat ganciclovir (HSV-1 TK; substrate ganciclovir) | Km (HSV-1 TK; [3]) | kcat thymidine (HSV-1 TK; substrate thymidine) | Km (HSV-1 TK; [4]) | Dose dependent cell killing by GCV (cell viability, MTT) (HCT-116 cells [1]) | Dose dependent cell killing by GCV (cell viability, MTT) (HCT-116 cells [1]; listed as Asn-125TK) | Decrease in kcat for GCV compared to wild-type enzyme (HSV-1 TK) | Change of kcat for thymidine relative to wild-type (in words) (HSV-1 TK; substrate thymidine) | Increase of Km for thymidine relative to wild-type enzyme (HSV-1 TK; substrate thymidine) | Dose dependent cell killing by GCV (cell viability, MTT) (HCT-116 cells [1]; listed as Glu-125 HSV-1 TK) | Dose dependent cell killing by GCV (cell viability, MTT) (HCT-116 cells [1]; listed as Glu-125TK) | Decrease in cell colony numbers (HCT-116 cells [2]; 1 μM GCV) | Reduction in cell colony numbers (HCT-116 cells [2]; 20-110 μM GCV (data not shown)) | Decrease in kcat for thymidine relative to wild-type (HSV-1 TK; substrate thymidine)
1 | Gln-125 (WT): wild-type herpes simplex virus type 1 thymidine kinase with glutamine at position 125, parent enzyme [reference compound] | as effective as wild-type HSV-1 TK | proportionally more cell killing | 2 log | 4 log | proportionally more cell killing | 0.47 s⁻¹ | 69 µM | 0.06 s⁻¹ | 0.9 µM |  |  |  |  |  |  |  |  |  | 
2 | Asn-125 |  |  | 2 log | 4 log | proportionally more cell killing | 0.08 s⁻¹ | 50 µM | 0.13 s⁻¹ | 20 µM | as effective as wild-type HSV-1 TK | proportionally more cell killing | 6 fold | doubled | ~20 fold |  |  |  |  | 
3 | Glu-125 |  |  | no reduction | 2.5 log | minimal cell killing | 0.04 s⁻¹ | 473 µM | 0.003 s⁻¹ | 3 µM |  |  | 12 fold |  | approximately 3 fold | just as sensitive to GCV killing | cell viabilities dropped precipitously | 0.7 log | over 3 log | 20 fold
